Tested on: MS2 coat protein
Assay: apparent KD of MS2 coat protein; designed switch direction (-1 OFF switch, 1 ON switch): -1; higher = weaker reporter binding
Outline: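 For each design, the apparent KD is the median over clusters of curves fitted to normalised cluster fluorescence. Clusters held RNA switches with common flanks, transcribed on Illumina chips by stalled E. coli RNA polymerase. These were titrated with SNAP-549-labelled MS2 coat protein, doubling from 0.7 or 1.5 nM to 3 µM, without input, with 200 uM small-molecule ligand, or with an oligonucleotide input.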

[1] = Eterna round: R95, input ligand: FMN 200 uM
[2] = Eterna round: R95, input ligand: microRNA oligo, concentration not stated
[3] = Eterna round: R95, input ligand: none
[4] = input ligand: microRNA oligo, concentration not stated

Sequence | apparent KD of MS2 coat protein [1] | apparent KD of MS2 coat protein [2] | apparent KD of MS2 coat protein [3] | apparent KD of MS2 coat protein (input ligand: FMN 200 uM) | apparent KD of MS2 coat protein (input ligand: none) | apparent KD of MS2 coat protein [4]
AAAUACAAGCAAAGAUUCUACAUGAGGAUCACCCAUGUGCUCGUCUUAUAAAGUACUAUCACGAAAGUGAUAGUACA [Sensor 3, v1 - 33] (puzzle: Sensor v3, turn-off variant 1) | 21.3 nM | 161 nM | 23.2 nM |  |  | 
ACCUCACUUGAGGAUCACCCAAGUCAGGAUAUACUCGUUUGCCACAAAACGCGGCAUUGUAGAAGGGACGGGCU [Esusso] (Eterna round: R97, puzzle: Exclusion 1) |  |  |  | 30 nM | 21.5 nM | 
CAUACACAUGAGGAUCACCCAUGUGAGGAUAUGCGUACGUAAUCCGUAGGAGACGUGCGCAGAAGGCGCGAGGU [Mat - Mod of JL D94] (puzzle: Exclusion 1) |  | 38.7 nM |  |  |  | 
CACAUGAGACGGAGAUCCAACAUGAGGAUCACCCAUGUCUCAAAAGCUUUUUGCUUGUCUUAUCCUCCUCUCGUGAC [Mat - Sensor, turn-off var - Eli Mod - D61] (Eterna round: R97, puzzle: Sensor, turn-off variant 1) |  |  |  | 47.8 nM | 46.7 nM | 
AAAUAGCGAGGAUAUACUGGAAUAGAAAAUAUUCGCAUGGCACAUGAGGAUCACCCAUGUAGAAGGCGCAGUAA (Eterna round: R97, puzzle: Exclusion 2) |  |  |  | 85.5 nM | 25.5 nM | 
GUCCUCUUGACAUGAGGAUCACCCAUGUAUUAUUUGUUAACUGAGGAUAUACUCUUAUUUUUUAUGUAGAAGGCAGAUUUGUUC [JR_ExcNG3_Sub022] (Eterna round: R96, puzzle: Exclusion NG 3) |  |  |  |  |  | 32.1 nM
AGGUUGUGAGGAUAUUAGUUAUAUGAUUGGAGGAGUAUGGCUGAGAAGGCACAUGAGGAUCACCCAUGUAGAUC [JR_Ex4_Sub048] (Eterna round: R97, puzzle: Exclusion 4) |  |  |  | 555 nM | 162 nM | 
UAUGGUUAAGUCAGGAUAUGCUCAUAGAAGUCUGUGCAGAAGGGACAUGAGGAUCACCCAUGUAUGGUAGUGUU [Ex4 #61] (Eterna round: R97, puzzle: Brourd's mod of Exclusion 4) |  |  |  | 293 nM | 460 nM | 
GACAUACAUGAGGAUCACCCAUGUAAGGAUAUACGCAGUAGACUCCGAGGGACCUGAAGUAGAAGGUACAGGGU [Eternabot (L2) Solution 72] (Eterna round: R97, puzzle: Exclusion 1) |  |  |  | 103 nM | 34.5 nM | 
AUCAUGUCAGGAUAUCUGAUAUGGAUCUUCGGAUCAAGUUCAGAGAAGGGACAUGAGGAUCACCCAUGUCGAAC [Ex4-3: 31] (puzzle: Exclusion 4) |  | 25.6 nM |  |  |  | 
AUACCACGAGGAUAUCGUCUAUUCCACAUGAGGAUCACCCAUGUUAUCCAUGUUUCGUUUCGAGAAGGCGUGGGUU [JR_E5_Sub074] (puzzle: Exclusion 5) |  | 45.9 nM |  |  |  | 
GUAAAAAAAAAGGAUAUCGAACUUAUUAUUUAACGAGAAGGAUGAACAUGAGGAUCACCCAUGUGGUAUCAUGG [test] (puzzle: Exclusion 6) | 92.3 nM | 143 nM | 213 nM |  |  | 
AGCCAAGCAGGAUAUGCACGUAAUAACAUGAGGAUCACCCAUGUGACCGAUUUAUAUUCUGCAGAAGGGCUUGGAA [LRO-Excl5-14-mod of Erxesoan mod by Eli Fisker] (Eterna round: R97, puzzle: Exclusion 5) |  |  |  | 143 nM | 29.7 nM | 
UUAAUGUGAGGAUAUCAGGUGUGCUAGCGUACUGGUACAUCUGAGAAGGCACAUGAGGAUCACCCAUGUUCCUU [JL-ex4-3.27 Brourd mod] (puzzle: Exclusion 4) |  | 16.2 nM |  |  |  | 
AAACAAGCAACGAGAUCCCACAUGAGGAUCACCCAUGUCAACUGAAGUUUUAAAUCUUCAGGCUCGUCUUAUAACAA [S_tov1_V1.1] (Eterna round: R97, puzzle: Sensor, turn-off variant 1) |  |  |  | 33.6 nM | 34.8 nM | 
AAGAAACGAGGAUAUACAAUUGAGUGAGAGAGGGAAGUGUGACAUGAGGAUCACCCAUGUAGAAGGCGUGAGAG [JR_Exclu2_Sub086] (puzzle: Exclusion 2) | 116 nM | 82.3 nM | 80.4 nM |  |  | 
CCGGAACAUGAGGAUCACCCAUGUCAGGAUAUCCCUAAAUCGUCGAUAGACGAUAAAAGGAGAAGGGACACCGG [Mat - Exclusion 1 - Eli Mod - D26] (Eterna round: R97, puzzle: Exclusion 1) |  |  |  | 19.3 nM | 16.3 nM | 

Sequence | apparent KD of MS2 coat protein [1] | apparent KD of MS2 coat protein [2] | apparent KD of MS2 coat protein [3] | apparent KD of MS2 coat protein (input ligand: FMN 200 uM) | apparent KD of MS2 coat protein (input ligand: none) | apparent KD of MS2 coat protein [4]
UUUUAACAAGCGAGGUCCCACAUGAGGAUCACCCAUGUAGGUCAUGGAUUCCAUGGUCUUUUUGCUCGUCUUGUGUG [jl TITIN mod 9] (Eterna round: R97, puzzle: Sensor, turn-off variant 1) |  |  |  | 32.2 nM | 31.6 nM | 
GUUGUUUAUGUAGGAUAUGCCUGGCGUGCCUUUGCAGAAGGACAUGAGGAUCACCCAUGUAUUGCGGUCUGCGUUCAGAUCGCA [salish99_ExNG1_r4_039] (Eterna round: R96, puzzle: Exclusion NG 1) |  |  |  | 59.5 nM | 39 nM | 26 nM
GUUGGUUGAGAGGAUAUUGUACGCGAUGAGUGUCGAGAAGGUUCAACAUGAGGAUCACCCAUGUGGCUGAGUAA [Eternabot (L1) Solution 40] (Eterna round: R97, puzzle: Exclusion 6) |  |  |  | 442 nM | 32.1 nM | 
UUUAAUUUUUUUUUUUUACAAGCUUUUUGCUCGUCUUAUACAUGAGGAUCACCCAUGUAGGUGAGAGAUAAAUUAUC [JMF 15] (puzzle: Sensor v3, turn-off variant 2) | 19.6 nM | 128 nM | 24.4 nM |  |  | 
AUGCGACAUGAGGAUCACCCAUGUGAGGAUAUGCGAAUGCAUACUUCGGUGUGAUAGAGCAGAAGGCGCAGGUA [EX1 #16] (Eterna round: R97, puzzle: Exclusion 1) |  |  |  | 560 nM | 831 nM | 
CAAUAACAAGCGAGAUCCUACAUGAGGAUCACCCAUGUGCUCGUCUUAAAAGGUACUGUGACGAUAGUCACGGUACC [Mat - Sensor, turn-off var - Eli Mod - D98] (Eterna round: R97, puzzle: Sensor, turn-off variant 1) |  |  |  | 15.3 nM | 17.9 nM | 
CGGAUGUAAGGAUAUUAGUAGUAGUCAGAAAAGACUAUUACUGAGAAGGUACAUGAGGAUCACCCAUGUUUCCG [Mat - Exclusion 4 - Eli Mod - D43] (Eterna round: R97, puzzle: Exclusion 4) |  |  |  | 20.5 nM | 15.8 nM | 
UAGAAGGUAGGAUAUACGAAUAAAUAGGGUAGUAAUAAUACACAUGAGGAUCACCCAUGUAGAAGGACCAAGAU [Mat - Exclusion 2 - Mod of my Tesla design - D31] (puzzle: Exclusion 2) | 44.2 nM | 20.1 nM | 23 nM |  |  | 
GCAUGCGACUGAGGAUAUGUAGUGACCUCAGUCGAGACAUGAGGAUCACCCAUGUACAGCACGUGACAGAAGGCAGCACAUGAU [Eternabot solution 14] (Eterna round: R96, puzzle: Exclusion NG 2) |  |  |  | 63.2 nM | 53.7 nM | 38.5 nM
UUUUUAUUUGAAGGAUAUACUUAACAUGAGGAUCACCCAUGUGGUGUUGUGAGUGAGUGAGUUUAGUAGAAGGUCAAUUAUUUU [JMF's solution 18] (Eterna round: R96, puzzle: Exclusion NG 2) |  |  |  |  |  | 359 nM
GCAUCCAGUGUGAGGAUAUACCUCUGGAUACAUAGGUAGAAGGCACAUGAGGAUCACCCAUGUCCUAAGGAUGC [Fiskers BMX 4 - 29] (puzzle: Brourd's mod of Exclusion 4) | 104 nM | 47.5 nM | 75.5 nM |  |  | 
GGUUGGCGAGGAUAUACAUGAGGAUCACCCAUGUGAGAGAUAAAAGUGAGGAAGAAAAGUAGAAGGCGCUGACG [salish99_ex3_r3_012] (puzzle: Exclusion 3) | 155 nM | 29.5 nM | 69 nM |  |  | 
GCACGGUUGGUAGGAUAUCCUUGCGAUUAGCAAGGAGAAGGACCACAUGAGGAUCACCCAUGUACCUCAAUAAUCCUUCCGUGC [Eli exng1 - 027] (Eterna round: R96, puzzle: Exclusion NG 1) |  |  |  | 12.8 nM | 14.7 nM | 12.1 nM
AAAGCGCGGUGAUAAUCUGUAACAUGAGGAUCACCCAUGUAGCAGGAUAUGGGCACAGUGGAAACUCAGAAGGGCUAUAAGCGC [Eternabot solution 21] (Eterna round: R96, puzzle: Exclusion NG 3) |  |  |  | 171 nM | 288 nM | 369 nM
UCUUGUUGUCCGUGAGAAUACAUGAGGAUCACCCAUGUUAGUUUGAUUAUGAUGUGUAAGUUUGUUGCUCGUUUUAU [JR_STOV1_Sub070] (Eterna round: R97, puzzle: Sensor, turn-off variant 1) |  |  |  | 36.4 nM | 41.3 nM | 
CUAGCUUCGGCUAGUACAAGCUUUUUGCUCGUCUUAUUAACAUGAGGAUCACCCAUGUUAAUGAGACCUCAUGUAUU [Sensor v3 - turn-off variant 2 - 9] (puzzle: Sensor v3, turn-off variant 2) | 12.7 nM | 15.2 nM | 11.1 nM |  |  | 
AAAUUAGCAAGUAGGUCCGACAUGAGGAUCACCCAUGUUAUCUGAAAUAACGCAGCAUGAUUGUGCGCUCGUCUUAG [Sensor-V1 #7] (Eterna round: R97, puzzle: Sensor, turn-off variant 1) |  |  |  | 67.6 nM | 68.6 nM | 
